Experimental data reported in patent US20230303690A1 (published 2023).
One block for each binder: values may come before it.

Biological target: human LAG3 expressed on cells (human) (UniProt P18627)
Assay: cell-based or functional assay

human LAG3 expressed on cells (human), sequence (P18627 23-525): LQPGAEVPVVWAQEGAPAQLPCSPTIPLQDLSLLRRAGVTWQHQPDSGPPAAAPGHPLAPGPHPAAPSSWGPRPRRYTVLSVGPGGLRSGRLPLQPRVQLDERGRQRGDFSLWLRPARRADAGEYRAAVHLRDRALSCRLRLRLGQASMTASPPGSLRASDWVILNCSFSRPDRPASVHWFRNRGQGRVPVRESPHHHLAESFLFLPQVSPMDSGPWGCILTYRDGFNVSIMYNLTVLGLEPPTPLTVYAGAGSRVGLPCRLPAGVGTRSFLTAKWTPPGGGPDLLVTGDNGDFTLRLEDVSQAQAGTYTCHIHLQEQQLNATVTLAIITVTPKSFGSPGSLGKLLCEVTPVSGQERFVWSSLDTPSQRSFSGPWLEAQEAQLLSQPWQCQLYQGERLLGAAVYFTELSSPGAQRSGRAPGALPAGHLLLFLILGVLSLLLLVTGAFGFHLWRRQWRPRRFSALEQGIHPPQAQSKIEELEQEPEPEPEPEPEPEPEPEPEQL

B2: sdAb No. 2093 (VHH, part only)
VHH: QVQLVESGGGLVQPGGSLTLSCVASGFTLDYYTVGWFRQVPGKEREGISCISSSDGSTRYADSVKGRFTISRDNAKNTMSLQMNSLKPEDTAVYYCATPGIHGTSCNTSWKYYGQGTQVTVSS
modifications: possible Fc not stated
IL-2, % of BMS, at 0.005080526 ug/mL: -0.00098% | IL-2, % of BMS, at 0.015241579 ug/mL: -3.19% | IL-2, % of BMS, at 0.045724737 ug/mL: 5.73% | IL-2, % of BMS, at 0.137174211 ug/mL: 0.267% | IL-2, % of BMS, at 0.411522634 ug/mL: 1.04% | IL-2, % of BMS, at 1.234567901 ug/mL: 4% | IL-2, % of BMS, at 3.703703704 ug/mL: 14.9% | IL-2, % of BMS, at 11.11111111 ug/mL: 20% | IL-2, % of BMS, at 33.33333333 ug/mL: 14.4% | IL-2, % of BMS, at 100 ug/mL: 22.2%

B3: sdAb fusion 25-2015-3 (Fc fusion, not shown: a dimerising Fc or GST)
chain: QLQLVESGGGLVQAGGSLRLSCAASGSIESFSFMGWYRQAPGKQRELVAGFTGAASLSFSTYTDAVKGRFTISRDNAKNTVYLQMNSLKPEDTAVYFCNVDPWSQSWPGRYWGQGTQVTVSSGGGGSGGGGSGGGGSQLQLVESGGGLAQTGGSLRLSCAAAGFTFDDTATGWFRQAPGKNREGVACISSSDGRIHYIDSAKGRFTISKDNAKKTVYLQMDSLKPEDTAVYYCAAARKGSTDCQGAIWGSWGQGTQVIVSSEPKSCDKTHTCPPCPAPELLG
Efficacy (Normalized to BMS): 113% | IL-2, % of BMS, at 0.001016105 ug/mL: 0% | IL-2, % of BMS, at 0.003048316 ug/mL: 10.7% | IL-2, % of BMS, at 0.009144947 ug/mL: 7.28% | IL-2, % of BMS, at 0.027434842 ug/mL: 30.2% | IL-2, % of BMS, at 0.082304527 ug/mL: 10.3% | IL-2, % of BMS, at 0.24691358 ug/mL: 35.4% | IL-2, % of BMS, at 0.740740741 ug/mL: 59.3% | IL-2, % of BMS, at 2.222222222 ug/mL: 96.8% | IL-2, % of BMS, at 6.666666667 ug/mL: 112% | IL-2, % of BMS, at 20 ug/mL: 116% | Jurkat T-hLAG3 Assay EC50: 8.01 nM

B6: sdAb No. 2018 (VHH, part only)
VHH: QVQLVESGGGLVQPGGSLKLSCTASGFTLDYYAIAWFRQAPGKEREAVSCISSSDGSTRYADSVKGRFTISRDNAKNTVYLQMNSLKPEDTAVYYCAADPYGDCRGPYDYWGQGTQVTVSS
modifications: possible Fc not stated
IL-2, % of BMS, at 0.005080526 ug/mL: 0.0212% | IL-2, % of BMS, at 0.015241579 ug/mL: 5.32% | IL-2, % of BMS, at 0.045724737 ug/mL: 2.83% | IL-2, % of BMS, at 0.137174211 ug/mL: 9.41% | IL-2, % of BMS, at 0.411522634 ug/mL: 15.3% | IL-2, % of BMS, at 1.234567901 ug/mL: 22.8% | IL-2, % of BMS, at 3.703703704 ug/mL: 28.6% | IL-2, % of BMS, at 11.11111111 ug/mL: 34.6% | IL-2, % of BMS, at 33.33333333 ug/mL: 36.9% | IL-2, % of BMS, at 100 ug/mL: 37%

Results, then the binder that gave them:

Efficacy (Normalized to BMS): 101% | IL-2, % of BMS, at 0.001016105 ug/mL: 0.000334% | IL-2, % of BMS, at 0.003048316 ug/mL: -15.6% | IL-2, % of BMS, at 0.009144947 ug/mL: -12.5% | IL-2, % of BMS, at 0.027434842 ug/mL: 20.8% | IL-2, % of BMS, at 0.082304527 ug/mL: -0.802% | IL-2, % of BMS, at 0.24691358 ug/mL: 20.9% | IL-2, % of BMS, at 0.740740741 ug/mL: 59.4% | IL-2, % of BMS, at 2.222222222 ug/mL: 83.2% | IL-2, % of BMS, at 6.666666667 ug/mL: 88.3% | IL-2, % of BMS, at 20 ug/mL: 96.6% | Jurkat T-hLAG3 Assay EC50: 5.13 nM
B1: sdAb fusion 25-2015-2 (Fc fusion, not shown: a dimerising Fc or GST)
chain: QLQLVESGGGLVQAGGSLRLSCAASGSIESFSFMGWYRQAPGKQRELVAGFTGAASLSFSTYTDAVKGRFTISRDNAKNTVYLQMNSLKPEDTAVYFCNVDPWSQSWPGRYWGQGTQVTVSSGGGGSGGGGSQLQLVESGGGLAQTGGSLRLSCAAAGFTFDDTATGWFRQAPGKNREGVACISSSDGRIHYIDSAKGRFTISKDNAKKTVYLQMDSLKPEDTAVYYCAAARKGSTDCQGAIWGSWGQGTQVIVSSEPKSCDKTHTCPPCPAPELLG

IL-2, % of BMS, at 0.001016105 ug/mL: 0.0673% | IL-2, % of BMS, at 0.003048316 ug/mL: -5.25% | IL-2, % of BMS, at 0.009144947 ug/mL: 2.64% | IL-2, % of BMS, at 0.027434842 ug/mL: -8.9% | IL-2, % of BMS, at 0.082304527 ug/mL: -0.289% | IL-2, % of BMS, at 0.24691358 ug/mL: 3.53% | IL-2, % of BMS, at 0.740740741 ug/mL: 17% | IL-2, % of BMS, at 2.222222222 ug/mL: 58.4% | IL-2, % of BMS, at 6.666666667 ug/mL: 120% | IL-2, % of BMS, at 20 ug/mL: 168%
B4: sdAb fusion 25-27-3 (Fc fusion, not shown: a dimerising Fc or GST)
chain: QLQLVESGGGLVQAGGSLRLSCAASGSIESFSFMGWYRQAPGKQRELVAGFTGAASLSFSTYTDAVKGRFTISRDNAKNTVYLQMNSLKPEDTAVYFCNVDPWSQSWPGRYWGQGTQVTVSSGGGGSGGGGSGGGGSQVQLVESGGGLVQPGGSLRLSCAASGFTLDYYAIGWFRQAPGKEREGVSCIRSSDGSTYYADSVKGRFTISSDNTKNTVYLQMNSLKPEDTAVYYCATDRYSDCRGPYENWGQGTQVTVSSEPKSCDKTHTCPPCPAPELLG

Efficacy (Normalized to BMS): 106% | IL-2, % of BMS, at 0.001016105 ug/mL: 0.0147% | IL-2, % of BMS, at 0.003048316 ug/mL: 3.76% | IL-2, % of BMS, at 0.009144947 ug/mL: 5.39% | IL-2, % of BMS, at 0.027434842 ug/mL: 11.1% | IL-2, % of BMS, at 0.082304527 ug/mL: 6.04% | IL-2, % of BMS, at 0.24691358 ug/mL: 17.2% | IL-2, % of BMS, at 0.740740741 ug/mL: 62% | IL-2, % of BMS, at 2.222222222 ug/mL: 114% | IL-2, % of BMS, at 6.666666667 ug/mL: 123% | IL-2, % of BMS, at 20 ug/mL: 124%
B5: sdAb fusion 25-27-2 (Fc fusion, not shown: a dimerising Fc or GST)
chain: QLQLVESGGGLVQAGGSLRLSCAASGSIESFSFMGWYRQAPGKQRELVAGFTGAASLSFSTYTDAVKGRFTISRDNAKNTVYLQMNSLKPEDTAVYFCNVDPWSQSWPGRYWGQGTQVTVSSGGGGSGGGGSQVQLVESGGGLVQPGGSLRLSCAASGFTLDYYAIGWFRQAPGKEREGVSCIRSSDGSTYYADSVKGRFTISSDNTKNTVYLQMNSLKPEDTAVYYCATDRYSDCRGPYENWGQGTQVTVSSEPKSCDKTHTCPPCPAPELLG
